In test [1] the target is human C1q (Quidel Corp.) (human) (UniProt P02745). Kind of test: reverse ELISA, PAP on C1q-coated plate without competitor. A general note: ELISA stands for enzyme-linked immunosorbent assay.
Test [2] has as its target FcγIIb (UniProt P31994). As to the kind of experiment: reverse ELISA, PAP on FcγIIb-coated plate without competitor.
A further test addresses FcγIIIa (UniProt P08637). Kind of test: reverse ELISA, PAP on FcγIIIa-coated plate without competitor.
In another test the target is FcγI (UniProt P12314). As to the kind of experiment: reverse ELISA (repeat), PAP on Fcγ1-coated plate without competitor.
UniProt P12314, sequence (P12314 16-288 limits assumed): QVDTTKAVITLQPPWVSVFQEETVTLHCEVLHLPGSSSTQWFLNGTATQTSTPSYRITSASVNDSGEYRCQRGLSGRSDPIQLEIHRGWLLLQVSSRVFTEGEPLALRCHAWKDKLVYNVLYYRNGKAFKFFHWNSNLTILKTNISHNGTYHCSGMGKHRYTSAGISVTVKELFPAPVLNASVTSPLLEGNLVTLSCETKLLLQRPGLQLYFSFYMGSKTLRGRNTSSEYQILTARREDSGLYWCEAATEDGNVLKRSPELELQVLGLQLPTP
Test [3] addresses FcγIIb (UniProt P31994). Kind of test: reverse ELISA (repeat), PAP on FcγIIb/c-coated plate without competitor.
A further test deals with FcγIIa (R131 allele) (UniProt P12318). Kind of test: reverse ELISA, PAP on FcγIIa (R131 allele)-coated plate without competitor.
The target of another test is FCγIIIb (NA2) (UniProt O75015). Kind of test: reverse ELISA (repeat), PAP on FcγIIIb (NA2)-coated plate without competitor.
UniProt O75015, sequence (O75015 17-200 N65S limits assumed): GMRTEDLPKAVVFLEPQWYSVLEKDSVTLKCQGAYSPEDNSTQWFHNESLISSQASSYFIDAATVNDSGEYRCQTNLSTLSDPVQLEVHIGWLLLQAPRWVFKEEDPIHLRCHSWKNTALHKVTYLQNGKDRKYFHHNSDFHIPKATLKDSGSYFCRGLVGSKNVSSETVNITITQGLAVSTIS
Test [4] has as its target FcγIIa (His 131 allele aka H161) (UniProt P12318). Kind of test: reverse ELISA (repeat), PAP on FcγIIa (H131 allele)-coated plate without competitor.
Test [5] concerns the target PAP complex: preformed immune complex of peroxidase and rabbit anti-peroxidase IgG (horseradish) (UniProt P00433). Kind of test: reverse ELISA competition (repeat): inhibition by the peptide of PAP binding to immobilised Fcγ1.
The target is the same in test [6]. As to the kind of experiment: reverse ELISA competition (repeat): inhibition by the peptide of PAP binding to immobilised FcγIIb/c.
For test [7] the target is unchanged. Kind of test: reverse ELISA competition (repeat): inhibition by the peptide of PAP binding to immobilised FcγIIIb (NA2).
The target is the same in test [8]. As to the kind of experiment: reverse ELISA competition (repeat): inhibition by the peptide of PAP binding to immobilised FcγIIa (H131 allele).
Test [9] has the same target. As to the kind of experiment: reverse ELISA competition: PAP pre-incubated with peptide, then on plate coated with FcγIIb; signal is PAP left bound to the receptor.
Test [10] shares this target. As to the kind of experiment: reverse ELISA competition: PAP pre-incubated with peptide, then on plate coated with FcγIIIa; signal is PAP left bound to the receptor.
Test [11] shares this target. As to the kind of experiment: reverse ELISA competition (repeat): PAP pre-incubated with peptide, then on plate coated with Fcγ1; signal is PAP left bound to the receptor.
Test [12] shares this target. As to the kind of experiment: reverse ELISA competition (repeat): PAP pre-incubated with peptide, then on plate coated with FcγIIb/c; signal is PAP left bound to the receptor.
For test [13] the target is unchanged. Kind of test: reverse ELISA competition: PAP pre-incubated with peptide, then on plate coated with FcγIIa (R131 allele); signal is PAP left bound to the receptor.
Test [14] has the same target. Kind of test: reverse ELISA competition (repeat): PAP pre-incubated with peptide, then on plate coated with FcγIIIb (NA2); signal is PAP left bound to the receptor.
For test [15] the target is unchanged. Kind of test: reverse ELISA competition (repeat): PAP pre-incubated with peptide, then on plate coated with FcγIIa (H131 allele); signal is PAP left bound to the receptor.
Test [16] shares this target. Kind of test: reverse ELISA competition: PAP pre-incubated with peptide, then on C1q-coated plate; signal is PAP left bound to immobilised human C1q (lower = more inhibition).

UniProt P31994, sequence (P31994 46-217 limits assumed): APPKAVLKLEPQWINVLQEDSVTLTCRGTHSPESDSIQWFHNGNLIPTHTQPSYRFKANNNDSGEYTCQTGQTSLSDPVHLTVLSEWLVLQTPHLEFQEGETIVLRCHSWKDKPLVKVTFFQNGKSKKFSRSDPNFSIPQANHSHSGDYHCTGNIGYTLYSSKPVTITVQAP
UniProt P02745, sequence (P02745 23-245 limits assumed, chain 1 of 3): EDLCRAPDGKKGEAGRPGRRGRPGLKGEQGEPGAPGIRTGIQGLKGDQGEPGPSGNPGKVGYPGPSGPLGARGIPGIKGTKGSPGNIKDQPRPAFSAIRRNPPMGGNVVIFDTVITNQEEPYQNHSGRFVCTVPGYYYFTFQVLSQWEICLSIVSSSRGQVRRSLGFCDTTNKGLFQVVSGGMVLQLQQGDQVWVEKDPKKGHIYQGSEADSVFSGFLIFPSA
UniProt P02745, sequence (P02746 28-253 limits assumed, chain 2 of 3, further chain): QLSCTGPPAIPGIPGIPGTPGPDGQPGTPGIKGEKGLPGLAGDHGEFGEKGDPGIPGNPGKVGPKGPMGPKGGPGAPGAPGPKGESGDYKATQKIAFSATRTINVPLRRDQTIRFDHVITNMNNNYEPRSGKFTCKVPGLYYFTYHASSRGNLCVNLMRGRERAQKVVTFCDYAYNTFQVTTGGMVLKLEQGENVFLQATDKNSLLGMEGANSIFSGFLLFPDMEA
UniProt P02745, sequence (P02747 29-245 limits assumed, chain 3 of 3, further chain): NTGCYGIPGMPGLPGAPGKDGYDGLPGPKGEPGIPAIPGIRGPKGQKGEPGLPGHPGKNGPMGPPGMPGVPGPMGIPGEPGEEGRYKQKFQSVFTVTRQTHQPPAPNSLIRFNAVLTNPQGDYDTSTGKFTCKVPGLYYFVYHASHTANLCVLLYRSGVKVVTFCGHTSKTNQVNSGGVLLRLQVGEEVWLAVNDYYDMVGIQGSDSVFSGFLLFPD
UniProt P08637, sequence (P08637 17-208 limits assumed): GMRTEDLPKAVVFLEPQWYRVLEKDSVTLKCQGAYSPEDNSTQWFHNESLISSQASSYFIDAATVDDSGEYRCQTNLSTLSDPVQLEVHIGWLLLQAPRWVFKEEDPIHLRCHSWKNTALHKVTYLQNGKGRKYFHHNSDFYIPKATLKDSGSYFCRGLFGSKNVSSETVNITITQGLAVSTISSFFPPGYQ

“PAP complex: preformed immune complex of peroxidase and rabbit anti-peroxidase IgG (from UniProt P00433 31-338)”: the OD 405 nm came out at 2.35 OD 405 nm in test [1]; 2.33 OD 405 nm with FcγI; 2.22 OD 405 nm with FcγIIb [3]; 3.06 OD 405 nm with FCγIIIb (NA2); 3.51 OD 405 nm in test [4]. Also, the figures for the OD405 with FcγIIb [2], with FcγIIIa and with FcγIIa (R131 allele) were 1.39 OD405, 1.59 OD405 and 1.6 OD405, respectively.
For APPDCAWHLGELVWCT [Peptide … (SEQ ID NO:20)], the % inhibition of IC binding in test [5] amounted to 89%; in test [6], 88%; in test [7], 91%; in test [8] it was 94%. Also, the OD405 in test [9] was 0.496 OD405; in test [10] it was 0.67 OD405; in test [13], 0.509 OD405. The OD 405 nm in [11] stood at 0.264 OD 405 nm; in test [12], 0.266 OD 405 nm; in test [14], 0.266 OD 405 nm; in test [15], 0.209 OD 405 nm; in test [16] it was 0.389 OD 405 nm.

For the origin of these results see patent US20120021988A1, “METHODS FOR TREATING IMMUNE THROMBOCYTOPENIA” (priority 2007, published 2012).
